Measured values: FireProtDB (doi:10.1002/pro.5560070509)

B1: NADP-dependent isopropanol dehydrogenase, P25984 (parent)
chain: MKGFAMLGINKLGWIEKERPVAGSYDAIVRPLAVSPCTSDIHTVFEGALGDRKNMILGHEAVGEVVEVGSEVKDFKPGDRVIVPCTTPDWRSLEVQAGFQQHSNGMLAGWKFSNFKDGVFGEYFHVNDADMNLAILPKDMPLENAVMITDMMTTGFHGAELADIQMGSSVVVIGIGAVGLMGIAGAKLRGAGRIIGVGSRPICVEAAKFYGATDILNYKNGHIVDQVMKLTNGKGVDRVIMAGGGSETLSQAVSMVKPGGIISNINYHGSGDALLIPRVEWGCGMAHKTIKGGLCPGGRLRAEMLRDMVVYNRVDLSKLVTHVYHGFDHIEEALLLMKDKPKDLIKAVVIL

Variants of: B1
Settings: Clostridium beijerinckii; pH 8.25; Thermal; DSC; Sodium phosphate 25 mM; NaCl 1 M; reversible: yes; structure 1KEV; whole UniProt chain shown

Variant | Tm | change of melting temperature, mutant - wild type (higher = more stable)
A22P | 66.7 °C | 0.7 °C
L316P | 76.8 °C | 10.8 °C
T149P | 65 °C | -1 °C
L275P | 63.7 °C | -2.3 °C
S24P | 69.9 °C | 3.9 °C
A347P | 68.6 °C | 2.6 °C
S24P L316P | 77.1 °C | 11.1 °C
H222P | 59.5 °C | -6.5 °C
A177P | 66.5 °C | 0.5 °C
